This note sets out measurements from patent US20210309709A1 (AKSTON BIOSCIENCES, published 2021).

Changes are numbered by the printed parent chain.

Assay [1] deals with T1, biotinylated recombinant human Fc(gamma)RI (R&D Systems) (human, UniProt P12314 16-288).
T1 construct: soluble in ELISA; also called rhFc(gamma)RI; Fc(gamma) receptor I
Put plainly: ELISA, fusion coated, biotinylated rhFc(gamma)RI at 3000 ng/mL. On the procedure:
(§1) The binding of insulin-Fc fusion proteins to the Fc(gamma)RI at pH 7.4 is conducted using an ELISA assay as follows using human Fc(gamma)RI (i.e., rhFc(gamma)RI). Insulin-Fc fusion proteins are diluted to 10 μg/mL in sodium bicarbonate buffer at pH 9.6 and coated on Maxisorp (Nunc) microtiter plates overnight at 4° C., after which the microplate strips are washed 5 times with PBST (PBS/0.05% Tween-20) buffer and blocked with Superblock blocking reagent (ThermoFisher). Serial dilutions of biotinylated rhFc(gamma)RI (recombinant human Fc(gamma)RI; R&D Systems) are prepared in PBST/10% Superblock buffer from 3000 ng/mL to 4.1 ng/mL and loaded at 100 μL/well onto the microplate strips coated with insulin-Fc fusion protein. The microtiter plate is incubated for 1 hour at room temperature after which time the microplate strips are washed 5 times with PBST and then loaded with 100 μL/well of streptavidin-HRP diluted 1:10000 in PBST/10% Superblock buffer. After incubating for 45 min, the microplate strips are washed again 5 times with PBST. TMB is added to reveal the bound Fc(gamma)RI proteins and is stopped with ELISA stop reagent (Boston Bioproducts). The plate is read in an ELISA plate reader at 450 nm, and the OD450 values (proportional to the binding of rhFc(gamma)RI to insulin-Fc protein) are plotted against log concentrations of rhFc(gamma)RI added to each well to generate binding curves using GraphPad Prism software. For groupings of compounds with somewhat similar curves, the OD450 at one of the higher concentrations, for instance at rhFc(gamma)RI concentrations of 3000 ng/mL, can be used to identify differences between coated insulin-Fc fusion protein compounds. […]
Finally, select compounds were tested for their likelihood to interact with the immune system by measuring their Fc(gamma) receptor binding activity according to the procedure of Example 15.

For assay [2], the target named is T2, biotinylated human complement component C1q (Sigma-Aldrich) (human, UniProt P02745 23-245; P02746 28-253; P02747 29-245).
T2 construct: Sigma-Aldrich', a protein complex; also called complement component 1q; biotinylated-C1q
Put plainly: ELISA, fusion coated, biotinylated human C1q at 1000 ng/mL.

For assay [3], the target named is T1, biotinylated recombinant human …. Nature of the assay: ELISA, fusion coated, biotinylated rhFc(gamma)RI at 3000 ng/mL. On the procedure:
The binding of insulin-Fc fusion proteins to the Fc(gamma)RI at pH 7.4 was conducted using an ELISA assay as follows using human Fc(gamma)RI (i.e., rhFc(gamma)RI). Insulin-Fc fusion proteins were diluted to 10 μg/mL in sodium bicarbonate buffer at pH 9.6 and coated on Maxisorp (Nunc) microtiter plates overnight at 4° C., after which the microplate strips were washed 5 times with PBST (PBS/0.05% Tween-20) buffer and blocked with Superblock blocking reagent (ThermoFisher). […] The plate was read in an ELISA plate reader at 450 nm, and the OD450 values (proportional to the binding of rhFc(gamma)RI to insulin-Fc protein) were plotted against log concentrations of rhFc(gamma)RI added to each well to generate binding curves using GraphPad Prism software. […] In order to compare differences across multiple insulin-Fc fusion proteins run at different times, the human Fc(gamma)RI assay OD450 Ratio was calculated as the OD450 value of a test insulin-Fc fusion protein compound obtained at a biotinylated-Fc(gamma)RI concentration of 3000 ng/mL, divided by the OD450 value of a reference insulin-Fc fusion protein of SEQ ID NO: 76 obtained at a biotinylated-Fc(gamma)RI concentration of 3000 ng/mL.
The source holds these as a separate data set.

For assay [4] the target is unchanged. Nature of the assay: ELISA, fusion coated, biotinylated rhFc(gamma)RI (concentration not clear from the table head). The protocol:
as §1

T1 sequence (P12314 16-288 limits assumed): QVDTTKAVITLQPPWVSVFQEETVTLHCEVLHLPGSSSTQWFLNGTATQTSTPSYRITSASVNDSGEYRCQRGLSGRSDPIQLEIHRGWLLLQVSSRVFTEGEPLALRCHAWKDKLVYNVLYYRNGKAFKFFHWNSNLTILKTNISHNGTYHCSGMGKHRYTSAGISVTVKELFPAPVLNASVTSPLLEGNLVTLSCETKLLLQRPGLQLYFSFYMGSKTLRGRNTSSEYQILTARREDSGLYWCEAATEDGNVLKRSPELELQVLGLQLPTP
T2 sequence (P02745 23-245 limits assumed, chain 1 of 3): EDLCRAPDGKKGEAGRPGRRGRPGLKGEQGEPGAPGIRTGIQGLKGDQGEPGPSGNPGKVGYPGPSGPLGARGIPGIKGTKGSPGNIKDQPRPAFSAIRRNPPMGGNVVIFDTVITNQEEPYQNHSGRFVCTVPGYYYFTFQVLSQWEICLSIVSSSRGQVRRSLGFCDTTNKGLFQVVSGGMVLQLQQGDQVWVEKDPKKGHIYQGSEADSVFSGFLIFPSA
T2 sequence (P02746 28-253 limits assumed, chain 2 of 3): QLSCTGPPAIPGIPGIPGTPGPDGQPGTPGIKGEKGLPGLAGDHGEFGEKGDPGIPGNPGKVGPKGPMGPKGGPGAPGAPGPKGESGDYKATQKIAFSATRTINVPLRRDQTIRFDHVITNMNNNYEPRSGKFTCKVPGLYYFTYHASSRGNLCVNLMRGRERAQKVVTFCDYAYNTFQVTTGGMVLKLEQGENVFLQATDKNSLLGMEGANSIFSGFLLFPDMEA
T2 sequence (P02747 29-245 limits assumed, chain 3 of 3): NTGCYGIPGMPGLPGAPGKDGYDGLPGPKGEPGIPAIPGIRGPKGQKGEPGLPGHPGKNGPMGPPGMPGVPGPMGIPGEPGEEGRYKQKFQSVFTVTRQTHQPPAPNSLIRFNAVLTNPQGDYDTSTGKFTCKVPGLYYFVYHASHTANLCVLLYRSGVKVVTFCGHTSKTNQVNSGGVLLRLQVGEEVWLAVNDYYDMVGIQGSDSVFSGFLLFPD

B1: insulin-Fc fusion protein of SEQ ID NO: 26 (Fc fusion)
chain: FVNQHLCGSHLVEALELVCGERGFHYGGGGGGSGGGGGIVEQCCTSTCSLDQLENYCGGGGGQGGGGQGGGGQGGGGGDCPKCPAPEMLGGPSVFIFPPKPKDTLLIARTPEVTCVVVDLDPEDPEVQISWFVDGKQMQTAKTQPREEQFNGTYRVVSVLPIGHQDWLKGKQFTCKVNNKALPSPIERTISKARGQAHQPSVYVLPPSREELSKNTVSLTCLIKDFFPPDIDVEWQSNGQQEPESKYRTTPPQLDEDGSYFLYSKLSVDKSRWQRGDTFICAVMHEALHNHYTQESLSHSPG
modifications: native N-glycosylation site cNg-NB151
As to B1, in assay [1], the OD450 nm worked out at 0.368 OD450, the “OD450 nm minus assay background” value turned out to be 0.311 OD450 and the “ratio to SEQ ID NO: 36” value stood at 0.84 ratio.

B2: insulin-Fc fusion protein of SEQ ID NO: 62 (Fc fusion)
chain: B1 chain with N151S
notes: also called cNg-NB151-S
For the molecule B2, in assay [1], the OD450 nm is 0.175 OD450, the “OD450 nm minus assay background” value was 0.118 OD450 and the “ratio to SEQ ID NO: 36” value is 0.32 ratio.

B3: insulin-Fc fusion protein of SEQ ID NO: 30 (Fc fusion)
chain: B1 chain with E16A, N151S
Take B3: in assay [1], the OD450 nm was found to be 0.177 OD450, the “OD450 nm minus assay background” value stood at 0.12 OD450 and the “ratio to SEQ ID NO: 36” value was 0.32 ratio.

B4: insulin-Fc fusion protein of SEQ ID NO: 61 (Fc fusion)
chain: B1 chain with D119A, N151S
notes: also called cNg-NB151-S, NB119-A
On to B4, for which, in assay [1], the OD450 nm stood at 0.166 OD450, the “OD450 nm minus assay background” value was determined as 0.109 OD450 and the “ratio to SEQ ID NO: 36” value came out at 0.29 ratio.

B5: insulin-Fc fusion protein of SEQ ID NO: 75 (Fc fusion)
chain: FVNQHLCGSHLVEALELVCGERGFHYGGGGGGSGGGGGIVEQCCTSTCSLDQLENYCGGGGGQGGGGQGGGGQGGGGGECPPCPAPPVAGPSVFLFPPKPKDTLMISRTPEVTCVVVDVSHEDPEVQFNWYVDGVEVHNAKTKPREEQFNSTFRVVSVLTVVHQDWLNGKEYKCKVSNKGLPAPIEKTISKTKGQPREPQVYTLPPSREEMTKNQVSLTCLVKGFYPSDIAVEWESNGQPENNYKTTPPMLDSDGSFFLYSKLTVDKSRWQQGNVFSCSVMHEALHNHYTQKSLSLSPG
notes: HEK293, Protein A; also called hIgG2
On to B5, for which the “OD450 Ratio to SEQ ID NO: 76” value in assay [2] turned out to be 0.309 ratio; in assay [3], 0.045 ratio.

B6: insulin-Fc fusion protein of SEQ ID NO: 58 (Fc fusion)
chain: FVNQHLCGSHLVEALELVCGERGFHYGGGGGGSGGGGGIVEQCCTSTCSLDQLENYCGGGGGQGGGGQGGGGQGGGGGRCTDTPPCPVPEPLGGPSVLIFPPKPKDILRITRTPEVTCVVLDLGREDPEVQISWFVDGKEVHTAKTQSREQQFNGTYRVVSVLPIEHQDWLTGKEFKCRVNHIDLPSPIERTISKARGRAHKPSVYVLPPSPKELSSSDTVSITCLIKDFYPPDIDVEWQSNGQQEPERKHRMTPPQLDEDGSYFLYSKLSVDKSRWQQGDPFTCAVMHETLQNHYTDLSLSHSPG
notes: purified on Protein A or Protein G
Regarding B6, in assay [1], the OD450 nm was found to be 0.253 OD450, the “OD450 nm minus assay background” value is 0.196 OD450 and the “ratio to SEQ ID NO: 36” value stood at 0.53 ratio.

B7: insulin-Fc fusion protein of SEQ ID NO: 36 (Fc fusion)
chain: FVNQHLCGSDLVEALALVCGERGFFYTDPTGGGPRRGIVEQCCHSICSLYQLENYCNGGGGAGGGGDCPKCPAPEMLGGPSVFIFPPKPKDTLLIARTPEVTCVVVDLDPEDPEVQISWFVDGKQMQTAKTQPREEQFNGTYRVVSVLPIGHQDWLKGKQFTCKVNNKALPSPIERTISKARGQAHQPSVYVLPPSREELSKNTVSLTCLIKDFFPPDIDVEWQSNGQQEPESKYRTTPPQLDEDGSYFLYSKLSVDKSRWQRGDTFICAVMHEALHNHYTQESLSHSPG
modifications: native N-glycosylation site cNg-NB139
notes: HEK293, Protein A
Take B7: in assay [1], the OD450 nm stood at 0.428 OD450, the “OD450 nm minus assay background” value is 0.371 OD450 and the “ratio to SEQ ID NO: 36” value was found to be 1 ratio. For the same molecule, in assay [4], the OD450 nm was 0.386 OD450, the “OD450 nm minus assay background” value is 0.323 OD450 and the “ratio to SEQ ID NO: 36” value was found to be 1 ratio.

B8: insulin-Fc fusion protein of SEQ ID NO: 40 (Fc fusion)
chain: B7 chain with N139S
notes: non-glycosylated canine IgGB Fc; also called cNg-NB139-S; cNg-S
Take B8: in assay [4], the OD450 nm worked out at 0.14 OD450, the “OD450 nm minus assay background” value stood at 0.077 OD450 and the “ratio to SEQ ID NO: 36” value is 0.24 ratio.

B9: insulin-Fc fusion protein of SEQ ID NO: 41 (Fc fusion)
chain: B7 chain with N139D
notes: also called cNg-NB139-D; cNg-D
Regarding B9, in assay [4], the OD450 nm came out at 0.204 OD450, the “OD450 nm minus assay background” value was 0.141 OD450 and the “ratio to SEQ ID NO: 36” value is 0.44 ratio.

B10: insulin-Fc fusion protein of SEQ ID NO: 42 (Fc fusion)
chain: B7 chain with N139K
notes: also called cNg-NB139-K; cNg-K
Take B10: in assay [4], the OD450 nm is 0.126 OD450, the “OD450 nm minus assay background” value is 0.063 OD450 and the “ratio to SEQ ID NO: 36” value was found to be 0.2 ratio.
